Columns and labels:
[1] = target: H3K4me2 peptide (H3 tail residues 1-20), P68431
[2] = target: H3K4me2T6ph peptide (H3 tail residues 1-20), P68431
[3] = target: H3K4me3T6ph peptide (H3 tail residues 1-20), P68431
[4] = target: H3K4me3 peptide (H3 tail residues 1-20), P68431
[5] = target: histone H3 in untreated nucleosomes purified from HeLa cells, P68431

Protein	demethylation assay, mass spectrometry [1]	demethylation assay, mass spectrometry [2]	demethylation assay, mass spectrometry [3]	demethylation assay, mass spectrometry [4]	phosphorylation of nucleosomes at H3T6 (in vitro kinase assay, Western blot with α-H3T6ph) [5]
baculovirus expressed and purified GST-JARID1B (protein) MEAATTLHPGPRPALPLGGPGPLGEFLPPPECPVFEPSWEEFADPFAFIHKIRPIAEQTGICKVRPPPDWQPPFACDVDKLHFTPRIQRLNELEAQTRVKLNFLDQIAKYWELQGSTLKIPHVERKILDLFQLNKLVAEEGGFAVVCKDRKWTKIATKMGFAPGKAVGSHIRGHYERILNPYNLFLSGDSLRCLQKPNLTTDTKDKEYKPHDIPQRQSVQPSETCPPARRAKRMRAEAMNIKIEPEETTEARTHNLRRRMGCPTPKCENEKEMKSSIKQEPIERKDYIVENEKEKPKSRSKKATNAVDLYVCLLCGSGNDEDRLLLCDGCDDSYHTFCLIPPLHDVPKGDWRCPKCLAQECSKPQEAFGFEQAARDYTLRTFGEMADAFKSDYFNMPVHMVPTELVEKEFWRLVSTIEEDVTVEYGADIASKEFGSGFPVRDGKIKLSPEEEEYLDSGWNLNNMPVMEQSVLAHITADICGMKLPWLYVGMCFSSFCWHIEDHWSYSINYLHWGEPKTWYGVPGYAAEQLENVMKKLAPELFVSQPDLLHQLVTIMNPNTLMTHEVPVYRTNQCAGEFVITFPRAYHSGFNQGFNFAEAVNFCTVDWLPLGRQCVEHYRLLHRYCVFSHDEMICKMASKADVLDVVVASTVQKDMAIMIEDEKALRETVRKLGVIDSERMDFELLPDDERQCVKCKTTCFMSAISCSCKPGLLVCLHHVKELCSCPPYKYKLRYRYTLDDLYPMMNALKLRAESYNEWALNVNEALEAKINKKKSLVSFKALIEESEMKKFPDNDLLRHLRLVTQDAEKCASVAQQLLNGKRQTRYRSGGGKSQNQLTVNELRQFVTQLYALPCVLSQTPLLKDLLNRVEDFQQHSQKLLSEETPSAAELQDLLDVSFEFDVELPQLAEMRIRLEQARWLEEVQQACLDPSSLTLDDMRRLIDLGVGLAPYSAVEKAMARLQELLTVSEHWDDKAKSLLKARPRHSLNSLATAVKEIEEIPAYLPNGAALKDSVQRARDWLQDVEGLQAGGRVPVLDTLIELVTRGRSIPVHLNSLPRLETLVAEVQAWKECAVNTFLTENSPYSLLEVLCPRCDIGLLGLKRKQRKLKEPLPNGKKKSTKLESLSDLERALTESKETASAMATLGEARLREMEALQSLRLANEGKLLSPLQDVDIKICLCQKAPAAPMIQCELCRDAFHTSCVAVPSISQGLRIWLCPHCRRSEKPPLEKILPLLASLQRIRVRLPEGDALRYMIERTVNWQHRAQQLLSSGNLKFVQDRVGSGLLYSRWQASAGQVSDTNKVSQPPGTTSFSLPDDWDNRTSYLHSPFSTGRSCIPLHGVSPEVNELLMEAQLLQVSLPEIQELYQTLLAKPSPAQQTDRSSPVRPSSEKNDCCRGKRDGINSLERKLKRRLEREGLSSERWERVKKMRTPKKKKIKLSHPKDMNNFKLERERSYELVRSAETHSLPSDTSYSEQEDSEDEDAICPAVSCLQPEGDEVDWVQCDGSCNQWFHQVCVGVSPEMAEKEDYICVRCTVKDAPSRK	Recombinant, purified JARID1B (FIG. 9) efficiently demethylates H3K4me3 and H3K4me2 peptides	demethylation of tri- and dimethyl H3K4 peptides phosphorylated at T6 (H3K4me3T6ph and H3K4me2T6ph) is severely impaired	demethylation of tri- and dimethyl H3K4 peptides phosphorylated at T6 (H3K4me3T6ph and H3K4me2T6ph) is severely impaired	Recombinant, purified JARID1B (FIG. 9) efficiently demethylates H3K4me3 and H3K4me2 peptides	–
purified recombinant active PKCµ (ProQinase) (protein) MSAPPVLRPPSPLLPVAAAAAAAAAALVPGSGPGPAPFLAPVAAPVGGISFHLQIGLSREPVLLLQDSSGDYSLAHVREMACSIVDQKFPECGFYGMYDKILLFRHDPTSENILQLVKAASDIQEGDLIEVVLSASATFEDFQIRPHALFVHSYRAPAFCDHCGEMLWGLVRQGLKCEGCGLNYHKRCAFKIPNNCSGVRRRRLSNVSLTGVSTIRTSSAELSTSAPDEPLLQKSPSESFIGREKRSNSQSYIGRPIHLDKILMSKVKVPHTFVIHSYTRPTVCQYCKKLLKGLFRQGLQCKDCRFNCHKRCAPKVPNNCLGEVTINGDLLSPGAESDVVMEEGSDDNDSERNSGLMDDMEEAMVQDAEMAMAECQNDSGEMQDPDPDHEDANRTISPSTSNNIPLMRVVQSVKHTKRKSSTVMKEGWMVHYTSKDTLRKRHYWRLDSKCITLFQNDTGSRYYKEIPLSEILSLEPVKTSALIPNGANPHCFEITTANVVYYVGENVVNPSSPSPNNSVLTSGVGADVARMWEIAIQHALMPVIPKGSSVGTGTNLHRDISVSISVSNCQIQENVDISTVYQIFPDEVLGSGQFGIVYGGKHRKTGRDVAIKIIDKLRFPTKQESQLRNEVAILQNLHHPGVVNLECMFETPERVFVVMEKLHGDMLEMILSSEKGRLPEHITKFLITQILVALRHLHFKNIVHCDLKPENVLLASADPFPQVKLCDFGFARIIGEKSFRRSVVGTPAYLAPEVLRNKGYNRSLDMWSVGVIIYVSLSGTFPFNEDEDIHDQIQNAAFMYPPNPWKEISHEAIDLINNLLQVKMRKRYSVDKTLSHPWLQDYQTWLDLRELECKIGERYITHESDDLRWEKYAGEQGLQYPTHLINPSASHSDTPETEETEMKALGERVSIL	–	–	–	–	only PKCα, 131 and 132 phosphorylate nucleosomes at H3T6 (PKCµ tested, no phosphorylation)
purified recombinant active PKCζ (ProQinase) (protein) MPSRTGPKMEGSGGRVRLKAHYGGDIFITSVDAATTFEELCEEVRDMCRLHQQHPLTLKWVDSEGDPCTVSSQMELEEAFRLARQCRDEGLIIHVFPSTPEQPGLPCPGEDKSIYRRGARRWRKLYRANGHLFQAKRFNRRAYCGQCSERIWGLARQGYRCINCKLLVHKRCHGLVPLTCRKHMDSVMPSQEPPVDDKNEDADLPSEETDGIAYISSSRKHDSIKDDSEDLKPVIDGMDGIKISQGLGLQDFDLIRVIGRGSYAKVLLVRLKKNDQIYAMKVVKKELVHDDEDIDWVQTEKHVFEQASSNPFLVGLHSCFQTTSRLFLVIEYVNGGDLMFHMQRQRKLPEEHARFYAAEICIALNFLHERGIIYRDLKLDNVLLDADGHIKLTDYGMCKEGLGPGDTTSTFCGTPNYIAPEILRGEEYGFSVDWWALGVLMFEMMAGRSPFDIITDNPDMNTEDYLFQVILEKPIRIPRFLSVKASHVLKGFLNKDPKERLGCRPQTGFSDIKSHAFFRSIDWDLLEKKQALPPFQPQITDDYGLDNFDTQFTSEPVQLTPDDEDAIKRIDQSEFEGFEYINPLLLSTEESV	–	–	–	–	only PKCα, 131 and 132 phosphorylate nucleosomes at H3T6 (PKCζ tested, no phosphorylation)
purified recombinant active PKCι (ProQinase) (protein) MSHTVAGGGSGDHSHQVRVKAYYRGDIMITHFEPSISFEGLCNEVRDMCSFDNEQLFTMKWIDEEGDPCTVSSQLELEEAFRLYELNKDSELLIHVFPCVPERPGMPCPGEDKSIYRRGARRWRKLYCANGHTFQAKRFNRRAHCAICTDRIWGLGRQGYKCINCKLLVHKKCHKLVTIECGRHSLPQEPVMPMDQSSMHSDHAQTVIPYNPSSHESLDQVGEEKEAMNTRESGKASSSLGLQDFDLLRVIGRGSYAKVLLVRLKKTDRIYAMKVVKKELVNDDEDIDWVQTEKHVFEQASNHPFLVGLHSCFQTESRLFFVIEYVNGGDLMFHMQRQRKLPEEHARFYSAEISLALNYLHERGIIYRDLKLDNVLLDSEGHIKLTDYGMCKEGLRPGDTTSTFCGTPNYIAPEILRGEDYGFSVDWWALGVLMFEMMAGRSPFDIVGSSDNPDQNTEDYLFQVILEKQIRIPRSLSVKAASVLKSFLNKDPKERLGCHPQTGFADIQGHPFFRNVDWDMMEQKQVVPPFKPNISGEFGLDNFDSQFTNEPVQLTPDDDDIVRKIDQSEFEGFEYINPLLMSAEECV	–	–	–	–	only PKCα, 131 and 132 phosphorylate nucleosomes at H3T6 (PKCι tested, no phosphorylation)
